In the test the target is T1, human transferrin receptor (recombinant, for surface plasmon resonance) (human, UniProt P02786 89-760).
T1 construct: also called huTfR; human transferrin receptor-biotinylated
The test is described as follows: SPR 25C.

T1 sequence (P02786 89-760 limits assumed): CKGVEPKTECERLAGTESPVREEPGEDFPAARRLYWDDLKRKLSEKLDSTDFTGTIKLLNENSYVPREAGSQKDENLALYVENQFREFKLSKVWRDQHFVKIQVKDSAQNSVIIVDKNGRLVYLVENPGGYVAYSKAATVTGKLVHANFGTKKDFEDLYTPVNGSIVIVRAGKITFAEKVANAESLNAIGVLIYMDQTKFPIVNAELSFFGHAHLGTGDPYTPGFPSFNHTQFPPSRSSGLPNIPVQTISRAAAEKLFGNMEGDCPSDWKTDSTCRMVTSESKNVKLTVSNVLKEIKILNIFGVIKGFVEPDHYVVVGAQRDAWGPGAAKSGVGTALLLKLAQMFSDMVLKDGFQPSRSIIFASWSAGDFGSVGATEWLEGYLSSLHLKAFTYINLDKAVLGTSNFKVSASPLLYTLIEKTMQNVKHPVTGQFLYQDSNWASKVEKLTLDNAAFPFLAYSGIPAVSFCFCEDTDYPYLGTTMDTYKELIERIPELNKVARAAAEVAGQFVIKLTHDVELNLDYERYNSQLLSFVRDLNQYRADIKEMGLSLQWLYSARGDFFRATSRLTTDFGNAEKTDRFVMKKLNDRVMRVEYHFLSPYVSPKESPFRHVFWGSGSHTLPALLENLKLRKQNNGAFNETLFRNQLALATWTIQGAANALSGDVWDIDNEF

B1: 2/99 VH5/VL15 (antibody, V domains shown)
VH: QSMEETGGGLIQPGGSLRLSCAASGFSLSSYAMSWVRQAPGKGLEWVGYIWSGGSTDYADSVKGRFTISRDNSKNTLYLQMNSLRAEDTAVYYCARRYGTSYPDYGDANGFDPWGPGTLVTVSS
VL: DIVMTQSPDSLAVSLGERATINCKSSQSISSYLIWYQQKPGQPPKLLIYRASTLASGVPDRFSGSGSGTDFTLTISSLQAEDVAVYYCQQAYSSSNVDNTFGGGTKVEIK
Consider B1, for which the koff stood at 0.00637 s⁻¹.

B2: 2/99 VH1/VL17 (antibody, V domains shown)
VH: VQLVETGGGLIQPGGSLRLSCAASGFSLSSYAMSWVRQAPGKGLEWVGYIWSGGSTDYADSVKGRFTISRDNSKNTLYLQMNSLRAEDTAVYYCARRYGTSYPDYGDANGFDPWGQGTLVTVSS
VL: AIQLTQSPSSLSASVGDRVTITCRASQSISSYLAWYQQKPGKAPKLLIYRASTLASGVPSRFSGSGSGTDFTLTISSLQPEDFATYYCQQTYSSSNVDNTFGGGTKVEIK
B2: the off-rate (koff) came out at 0.00756 s⁻¹.

B3: 2/99 VH6/VL15 (antibody, V domains shown)
VH: QQLVETGGGLIQPGGSLRLSCAASGFSLSSYAMSWVRQAPGKGLEWIGYIWSGGSTDYADSVKGRFTISRDNSKNTLYLQMNSLRAEDTAVYYCARRYGTSYPDYGDANGFDPWGQGTLVTVSS
VL: DIVMTQSPDSLAVSLGERATINCKSSQSISSYLIWYQQKPGQPPKLLIYRASTLASGVPDRFSGSGSGTDFTLTISSLQAEDVAVYYCQQAYSSSNVDNTFGGGTKVEIK
Regarding B3, the koff was determined as 0.00421 s⁻¹.

B4: 2/99 VH18/VL15 (antibody, V domains shown)
VH: QVQLQESGPGLVKPSQTLSLTCTVSGFSLSSYAMSWIRQHPGKGLEWIGYIWSGGSTDYAPSLKSRVTISVDTSKNQFSLKLSSVTAADTAVYYCARRYGTSYPDYGDANGFDPWGQGTLVTVSS
VL: DIVMTQSPDSLAVSLGERATINCKSSQSISSYLIWYQQKPGQPPKLLIYRASTLASGVPDRFSGSGSGTDFTLTISSLQAEDVAVYYCQQAYSSSNVDNTFGGGTKVEIK
As for B4, the koff was 0.00758 s⁻¹.

B5: 2/99 VH15/VL15 (antibody, V domains shown)
VH: QQLQESGPGLVKPSETLSLTCTVSGFSLSSYAMSWVRQPPGKGLEWIGYIWSGGSTDYNPSLKSRVTISVDTSKNQVSLKLSSVTAADTAVYYCARRYGTSYPDYGDANGFDPWGQGTLVTVSS
VL: DIVMTQSPDSLAVSLGERATINCKSSQSISSYLIWYQQKPGQPPKLLIYRASTLASGVPDRFSGSGSGTDFTLTISSLQAEDVAVYYCQQAYSSSNVDNTFGGGTKVEIK
As for B5, the koff worked out at 0.00603 s⁻¹.

B6: 2/99 VH22/VL15 (antibody, V domains shown)
VH: QSMQESGPGLVKPSQTLSLTCTVSGFSLSSYAMSWVRQHPGKGLEWIGYIWSGGSTDYASWAKSRVTISVDTSKNQVSLKLSSVTAADTAVYYCARRYGTSYPDYGDANGFDPWGQGTLVTVSS
VL: DIVMTQSPDSLAVSLGERATINCKSSQSISSYLIWYQQKPGQPPKLLIYRASTLASGVPDRFSGSGSGTDFTLTISSLQAEDVAVYYCQQAYSSSNVDNTFGGGTKVEIK
In the case of B6, the off-rate constant (koff) worked out at 0.00179 s⁻¹.

B7: 2/99 VH13/VL15 (antibody, V domains shown)
VH: QVQLQESGPGLVKPSETLSLTCTVSGFSLSSYAMSWIRQPPGKGLEWIGYIWSGGSTDYNPSLKSRVTISVDTSKNQVSLKLSSVTAADTAVYYCARRYGTSYPDYGDANGFDPWGQGTLVTVSS
VL: DIVMTQSPDSLAVSLGERATINCKSSQSISSYLIWYQQKPGQPPKLLIYRASTLASGVPDRFSGSGSGTDFTLTISSLQAEDVAVYYCQQAYSSSNVDNTFGGGTKVEIK
For the molecule B7, the off-rate constant (koff) was found to be 0.00711 s⁻¹.

B8: 2/99 VH5/VL17 (antibody, V domains shown)
VH: QSMEETGGGLIQPGGSLRLSCAASGFSLSSYAMSWVRQAPGKGLEWVGYIWSGGSTDYADSVKGRFTISRDNSKNTLYLQMNSLRAEDTAVYYCARRYGTSYPDYGDANGFDPWGPGTLVTVSS
VL: AIQLTQSPSSLSASVGDRVTITCRASQSISSYLAWYQQKPGKAPKLLIYRASTLASGVPSRFSGSGSGTDFTLTISSLQPEDFATYYCQQTYSSSNVDNTFGGGTKVEIK
For the molecule B8, the off-rate constant (koff) came to 0.00745 s⁻¹.

B9: 2/99 VH6/VL17 (antibody, V domains shown)
VH: QQLVETGGGLIQPGGSLRLSCAASGFSLSSYAMSWVRQAPGKGLEWIGYIWSGGSTDYADSVKGRFTISRDNSKNTLYLQMNSLRAEDTAVYYCARRYGTSYPDYGDANGFDPWGQGTLVTVSS
VL: AIQLTQSPSSLSASVGDRVTITCRASQSISSYLAWYQQKPGKAPKLLIYRASTLASGVPSRFSGSGSGTDFTLTISSLQPEDFATYYCQQTYSSSNVDNTFGGGTKVEIK
Turning to B9, the off-rate (koff) was 0.00717 s⁻¹.

B10: 2/99 VH21/VL15 (antibody, V domains shown)
VH: QSMQESGPGLVKPSQTLSLTCTVSGFSLSSYAMSWIRQHPGKGLEWIGYIWSGGSTDYASWAKSRVTISVDTSKNQVSLKLSSVTAADTAVYYCARRYGTSYPDYGDANGFDPWGQGTLVTVSS
VL: DIVMTQSPDSLAVSLGERATINCKSSQSISSYLIWYQQKPGQPPKLLIYRASTLASGVPDRFSGSGSGTDFTLTISSLQAEDVAVYYCQQAYSSSNVDNTFGGGTKVEIK
Regarding B10, the off-rate constant (koff) came out at 0.00192 s⁻¹.

B11: 2/99 VH7/VL17 (antibody, V domains shown)
VH: QQLVETGGGLIQPGGSLRLSCAASGFSLSSYAMSWVRQAPGKGLEWIGYIWSGGSTDYASWAKGRFTISRDNSKNTLYLQMNSLRAEDTAVYYCARRYGTSYPDYGDANGFDPWGQGTLVTVSS
VL: AIQLTQSPSSLSASVGDRVTITCRASQSISSYLAWYQQKPGKAPKLLIYRASTLASGVPSRFSGSGSGTDFTLTISSLQPEDFATYYCQQTYSSSNVDNTFGGGTKVEIK
With B11, the koff is 0.00187 s⁻¹.

B12: 2/99 VH9/VL15 (antibody, V domains shown)
VH: QQLLESGGGLVQPGGSLRLSCAASGFTFSSYAMSWVRQAPGKGLEWVGYIWSGGSTDYADSVKGRFTISRDNSKNTLYLQMNSLRAEDTAVYYCAKRYGTSYPDYGDANGFDPWGQGTLVTVSS
VL: DIVMTQSPDSLAVSLGERATINCKSSQSISSYLIWYQQKPGQPPKLLIYRASTLASGVPDRFSGSGSGTDFTLTISSLQAEDVAVYYCQQAYSSSNVDNTFGGGTKVEIK
Consider B12, for which the koff came out at 0.00739 s⁻¹.

B13: 2/99 VH20/VL15 (antibody, V domains shown)
VH: QSMQESGPGLVKPSQTLSLTCTVSGFSLSSYAMSWIRQHPGKGLEWIGYIWSGGSTDYAPSLKSRVTISVDTSKNQVSLKLSSVTAADTAVYYCARRYGTSYPDYGDANGFDPWGQGTLVTVSS
VL: DIVMTQSPDSLAVSLGERATINCKSSQSISSYLIWYQQKPGQPPKLLIYRASTLASGVPDRFSGSGSGTDFTLTISSLQAEDVAVYYCQQAYSSSNVDNTFGGGTKVEIK
B13: the dissociation rate constant (koff) was 0.00785 s⁻¹.

B14: 2/99 VH7/VL15 (antibody, V domains shown)
VH: QQLVETGGGLIQPGGSLRLSCAASGFSLSSYAMSWVRQAPGKGLEWIGYIWSGGSTDYASWAKGRFTISRDNSKNTLYLQMNSLRAEDTAVYYCARRYGTSYPDYGDANGFDPWGQGTLVTVSS
VL: DIVMTQSPDSLAVSLGERATINCKSSQSISSYLIWYQQKPGQPPKLLIYRASTLASGVPDRFSGSGSGTDFTLTISSLQAEDVAVYYCQQAYSSSNVDNTFGGGTKVEIK
Turning to B14, the koff is 0.00273 s⁻¹.

B15: 2/99 VH16/VL15 (antibody, V domains shown)
VH: QQLQESGPGLVKPSETLSLTCTVSGFSLSSYAMSWVRQPPGKGLEWIGYIWSGGSTDYNPSLKSRVTISVDTSKNQVSLKLSSVTAADTAVYYCARRYGTSYPDYGDANGFDPWGPGTLVTVSS
VL: DIVMTQSPDSLAVSLGERATINCKSSQSISSYLIWYQQKPGQPPKLLIYRASTLASGVPDRFSGSGSGTDFTLTISSLQAEDVAVYYCQQAYSSSNVDNTFGGGTKVEIK
Regarding B15, the koff is 0.00477 s⁻¹.

B16: 2/99 VH19/VL15 (antibody, V domains shown)
VH: QSMQESGPGLVKPSQTLSLTCTVSGFSLSSYAMSWIRQHPGKGLEWIGYIWSGGSTDYAPSLKSRVTISVDTSKNQFSLKLSSVTAADTAVYYCARRYGTSYPDYGDANGFDPWGQGTLVTVSS
VL: DIVMTQSPDSLAVSLGERATINCKSSQSISSYLIWYQQKPGQPPKLLIYRASTLASGVPDRFSGSGSGTDFTLTISSLQAEDVAVYYCQQAYSSSNVDNTFGGGTKVEIK
On to B16, for which the dissociation rate constant (koff) was found to be 0.001 s⁻¹.

B17: 2/99 VH11/VL15 (antibody, V domains shown)
VH: QQLLESGGGLVQPGGSLRLSCAASGFSLSSYAMSWVRQAPGKGLEWVGYIWSGGSTDYADSVKGRFTISRDNSKNTLYLQMNSLRAEDTAVYYCARRYGTSYPDYGDANGFDPWGQGTLVTVSS
VL: DIVMTQSPDSLAVSLGERATINCKSSQSISSYLIWYQQKPGQPPKLLIYRASTLASGVPDRFSGSGSGTDFTLTISSLQAEDVAVYYCQQAYSSSNVDNTFGGGTKVEIK
In the case of B17, the koff is 0.00709 s⁻¹.

B18: 2/99 VH8/VL15 (antibody, V domains shown)
VH: QQLVETGGGLIQPGGSLRLSCAASGFSLSSYAMSWVRQAPGKGLEWIGYIWSGGSTDYASWAKGRFTISKTSTTLYLQMNSLRAEDTAVYYCARRYGTSYPDYGDANGFDPWGQGTLVTVSS
VL: DIVMTQSPDSLAVSLGERATINCKSSQSISSYLIWYQQKPGQPPKLLIYRASTLASGVPDRFSGSGSGTDFTLTISSLQAEDVAVYYCQQAYSSSNVDNTFGGGTKVEIK
For the molecule B18, the koff came out at 0.00181 s⁻¹.

B19: 2/99 VH12/VL15 (antibody, V domains shown)
VH: QVQLQESGPGLVKPSETLSLTCTVSGFSLSSYAMSWIRQPPGKGLEWIGYIWSGGSTDYNPSLKSRVTISVDTSKNQFSLKLSSVTAADTAVYYCARRYGTSYPDYGDANGFDPWGQGTLVTVSS
VL: DIVMTQSPDSLAVSLGERATINCKSSQSISSYLIWYQQKPGQPPKLLIYRASTLASGVPDRFSGSGSGTDFTLTISSLQAEDVAVYYCQQAYSSSNVDNTFGGGTKVEIK
Consider B19, for which the off-rate constant (koff) came out at 0.00776 s⁻¹.

B20: 2/99 VH17/VL15 (antibody, V domains shown)
VH: QQLQESGPGLVKPSETLSLTCTVSGFSLSSYAMSWVRQPPGKGLEWIGYIWSGGSTDYNPSLKSRVTISKDTSKNQVSLKLSSVTAADTAVYYCARRYGTSYPDYGDANGFDPWGPGTLVTVSS
VL: DIVMTQSPDSLAVSLGERATINCKSSQSISSYLIWYQQKPGQPPKLLIYRASTLASGVPDRFSGSGSGTDFTLTISSLQAEDVAVYYCQQAYSSSNVDNTFGGGTKVEIK
Consider B20, for which the dissociation rate constant (koff) is 0.00156 s⁻¹.

B21: 2/99 VH2/VL17 (antibody, V domains shown)
VH: EVQLVETGGGLIQPGGSLRLSCAASGFSLSSYAMSWVRQAPGKGLEWVGYIWSGGSTDYADSVKGRFTISRDNSKNTLYLQMNSLRAEDTAVYYCARRYGTSYPDYGDANGFDPWGQGTLVTVSS
VL: AIQLTQSPSSLSASVGDRVTITCRASQSISSYLAWYQQKPGKAPKLLIYRASTLASGVPSRFSGSGSGTDFTLTISSLQPEDFATYYCQQTYSSSNVDNTFGGGTKVEIK
In the case of B21, the koff stood at 0.00712 s⁻¹.

(Values after patent US20180291110A1 (Hoffmann-La Roche, published 2018).)
